Patent publication US20140377215A1

Assays:
Assay in all cases: 1H-15N HSQC NMR titration of 15N-labeled CBD with mini-collagen
[1] = target: [PROXYL-(POG)5POA(POG)4]3
[2] = target: [PROXYL-(POG)6POA(POG)3]3
[3] = target: [PROXYL-(POG)3POA(POG)6]3
[4] = target: [PROXYL-(POG)4POA(POG)5]3

Measured: Kd

collagen-binding domain (CBD), s3b (Gly893-Lys1008) peptide derived from Clostridium histolyticum cl, sequence (Q9X721 1003-1118 limits assumed): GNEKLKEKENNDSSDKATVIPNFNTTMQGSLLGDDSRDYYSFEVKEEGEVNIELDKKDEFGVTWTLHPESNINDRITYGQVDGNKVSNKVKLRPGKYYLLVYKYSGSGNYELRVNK

collagen-binding domain (CBD), s3b (Gly893-Lys1008) peptide derived from Clostridium histolyticum cl (from UniProt Q9X721 1003-1118)
< 100 µM: all assays above
